The values that follow come from the supplement of paper PMC9112550, “Optimization of the antimicrobial peptide Bac7 by deep mutational scanning” (BMC Biology, 2022).

This data set concerns Escherichia coli TOP10. Kind of data set: shrunken log2 fold change of peptide-encoding DNA abundance (4.5 h post-induction vs induction); higher = less antimicrobial activity (less host growth inhibition). The note with it: time post-induction: 4.5 h; library: site-saturation at positions 5, 18, 19, 20.
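Also: peptides expressed intracellularly from a pBAD plasmid library in pooled LB shake-flask culture, induced with 0.3% L-arabinose, DNA abundance read by NGS, three biological replicates, DESeq2 with apeglm shrinkage.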

Turning to RRIRHRPPRLPRPRPRPNHGPRP, the “shrunken log2 fold change” value is 0.0424. The figure for RRIRHRPPRLPRPRPRPINSPRP is -0.404. The result for RRIRTRPPRLPRPRPRPQGRPRP reads -0.0678; that for RRIRPRPPRLPRPRPRPLPNPRP, 0.0283. Turning to RRIRMRPPRLPRPRPRPVVYPRP, the “shrunken log2 fold change” value is -0.0377. The result for RRIRARPPRLPRPRPRPILIPRP reads -0.374.

Take RRIRERPPRLPRPRPRPVRAPRP: the “shrunken log2 fold change” value was determined as 0.287. Turning to RRIRYRPPRLPRPRPRPSLDPRP, the “shrunken log2 fold change” value was -1.07. The figure for RRIRYRPPRLPRPRPRPYILPRP is -0.264; for RRIRIRPPRLPRPRPRPCPFPRP it is -1.38; for RRIRYRPPRLPRPRPRPKVPPRP it is 0.0215. The result for RRIRDRPPRLPRPRPRPMGVPRP reads 0.0778; that for RRIRPRPPRLPRPRPRPNPAPRP, 0.234. For the sequence RRIRLRPPRLPRPRPRPNWVPRP, the “shrunken log2 fold change” value is -0.0131. On to RRIRHRPPRLPRPRPRPICWPRP, for which the “shrunken log2 fold change” value came to 0.0429. Turning to RRIRKRPPRLPRPRPRPRRHPRP, the “shrunken log2 fold change” value was 0.523.

Turning to RRIRFRPPRLPRPRPRPITKPRP, the “shrunken log2 fold change” value was -0.0304. The figure for RRIRIRPPRLPRPRPRPHIRPRP is -0.297; for RRIRKRPPRLPRPRPRPVFFPRP it is 0.341; for RRIRFRPPRLPRPRPRPRHDPRP it is 0.0736. The figure for RRIRGRPPRLPRPRPRPQLIPRP is 0.139.

For the sequence RRIRHRPPRLPRPRPRPTMMPRP, the “shrunken log2 fold change” value was -0.503.

Turning to RRIRIRPPRLPRPRPRPMNPPRP, the “shrunken log2 fold change” value was -0.372.

RRIRARPPRLPRPRPRPAVWPRP: the “shrunken log2 fold change” value was found to be 0.64.

As to RRIRMRPPRLPRPRPRPKQCPRP, the “shrunken log2 fold change” value worked out at 0.208.

Consider RRIRERPPRLPRPRPRPWKPPRP, for which the “shrunken log2 fold change” value was -0.00455.

For RRIRMRPPRLPRPRPRPWSDPRP, the “shrunken log2 fold change” value was -0.131.

Consider RRIRKRPPRLPRPRPRPMETPRP, for which the “shrunken log2 fold change” value was -0.0146. The result for RRIRHRPPRLPRPRPRPMQFPRP reads 0.00869; that for RRIRCRPPRLPRPRPRPSTWPRP, -0.0554; that for RRIRYRPPRLPRPRPRPMLQPRP, -0.229.

For RRIRRRPPRLPRPRPRPYQRPRP, the “shrunken log2 fold change” value was -0.0429.

With RRIRWRPPRLPRPRPRPIWIPRP, the “shrunken log2 fold change” value is -0.186.

Take RRIRRRPPRLPRPRPRPAPCPRP: the “shrunken log2 fold change” value came out at 0.884.

With RRIRVRPPRLPRPRPRPDCTPRP, the “shrunken log2 fold change” value was -0.068. The result for RRIRGRPPRLPRPRPRPMNIPRP reads 0.127.

Consider RRIRDRPPRLPRPRPRPLKLPRP, for which the “shrunken log2 fold change” value turned out to be 0.0229.

With RRIRWRPPRLPRPRPRPMALPRP, the “shrunken log2 fold change” value is -0.0125. Consider RRIRGRPPRLPRPRPRPKWAPRP, for which the “shrunken log2 fold change” value is 0.155. Turning to RRIRQRPPRLPRPRPRPNAPPRP, the “shrunken log2 fold change” value came out at 0.105.

On to RRIRERPPRLPRPRPRPQKNPRP, for which the “shrunken log2 fold change” value was -0.49. The result for RRIRWRPPRLPRPRPRPFFYPRP reads 0.0746; that for RRIRLRPPRLPRPRPRPHREPRP, -0.969; that for RRIRCRPPRLPRPRPRPWGDPRP, -0.142. As to RRIRWRPPRLPRPRPRPNHKPRP, the “shrunken log2 fold change” value is -0.37. For the sequence RRIRFRPPRLPRPRPRPKILPRP, the “shrunken log2 fold change” value is 0.205. As to RRIRCRPPRLPRPRPRPKCYPRP, the “shrunken log2 fold change” value is -0.353. The result for RRIRIRPPRLPRPRPRPHIHPRP reads -0.811. The result for RRIRFRPPRLPRPRPRPQTQPRP reads 0.0508; that for RRIRLRPPRLPRPRPRPCMHPRP, -0.0286; that for RRIRGRPPRLPRPRPRPANCPRP, 0.147.

For RRIRHRPPRLPRPRPRPFGGPRP, the “shrunken log2 fold change” value was -0.0398. The figure for RRIRDRPPRLPRPRPRPFKPPRP is 0.00312; for RRIRRRPPRLPRPRPRPEYCPRP it is 0.0246. As to RRIRIRPPRLPRPRPRPDFAPRP, the “shrunken log2 fold change” value was found to be 0.222. As to RRIRMRPPRLPRPRPRPQTMPRP, the “shrunken log2 fold change” value came to 0.276. Consider RRIRMRPPRLPRPRPRPCWMPRP, for which the “shrunken log2 fold change” value worked out at 0.114. The result for RRIRARPPRLPRPRPRPWWWPRP reads 0.0143; that for RRIRPRPPRLPRPRPRPKFRPRP, -0.122. Consider RRIRPRPPRLPRPRPRPPAIPRP, for which the “shrunken log2 fold change” value worked out at 0.325.

Turning to RRIRIRPPRLPRPRPRPYRSPRP, the “shrunken log2 fold change” value is -0.186. For the sequence RRIRARPPRLPRPRPRPWEMPRP, the “shrunken log2 fold change” value amounted to 0.00132. Consider RRIRIRPPRLPRPRPRPGFIPRP, for which the “shrunken log2 fold change” value is -0.391. The figure for RRIRERPPRLPRPRPRPLHWPRP is 0.0186; for RRIRGRPPRLPRPRPRPRMTPRP it is 1.26; for RRIRWRPPRLPRPRPRPWYNPRP it is -0.119. The figure for RRIRFRPPRLPRPRPRPYFEPRP is -0.617. On to RRIRSRPPRLPRPRPRPPFKPRP, for which the “shrunken log2 fold change” value came out at 0.0589. The figure for RRIRCRPPRLPRPRPRPKADPRP is -0.052; for RRIRYRPPRLPRPRPRPGIDPRP it is -0.16; for RRIRRRPPRLPRPRPRPEADPRP it is 0.774. The result for RRIRARPPRLPRPRPRPYCNPRP reads -0.378; that for RRIRHRPPRLPRPRPRPCFVPRP, 0.0216. The figure for RRIRYRPPRLPRPRPRPHWQPRP is -0.0696; for RRIRWRPPRLPRPRPRPCFWPRP it is 0.213; for RRIRERPPRLPRPRPRPVMVPRP it is 0.204. With RRIRMRPPRLPRPRPRPIGYPRP, the “shrunken log2 fold change” value was -0.0789. In the case of RRIRARPPRLPRPRPRPIRHPRP, the “shrunken log2 fold change” value was -0.0279. As to RRIRARPPRLPRPRPRPHMQPRP, the “shrunken log2 fold change” value was 2.87. The result for RRIRRRPPRLPRPRPRPNYVPRP reads -0.338; that for RRIRKRPPRLPRPRPRPSQRPRP, 0.231. As to RRIRERPPRLPRPRPRPIDIPRP, the “shrunken log2 fold change” value was -0.01. Turning to RRIRIRPPRLPRPRPRPSMVPRP, the “shrunken log2 fold change” value is -0.654.

Take RRIRKRPPRLPRPRPRPIYSPRP: the “shrunken log2 fold change” value was -0.41. As for RRIRLRPPRLPRPRPRPDVQPRP, the “shrunken log2 fold change” value was 0.0463. Turning to RRIRNRPPRLPRPRPRPTKHPRP, the “shrunken log2 fold change” value was -0.0431. Regarding RRIRRRPPRLPRPRPRPLPSPRP, the “shrunken log2 fold change” value turned out to be 0.752. The result for RRIRQRPPRLPRPRPRPHPWPRP reads 0.0242; that for RRIRQRPPRLPRPRPRPSDFPRP, -0.128; that for RRIRGRPPRLPRPRPRPSDYPRP, 0.0378.

Consider RRIRWRPPRLPRPRPRPICEPRP, for which the “shrunken log2 fold change” value came to 0.389.

As to RRIRFRPPRLPRPRPRPHCNPRP, the “shrunken log2 fold change” value is -0.548.

For the sequence RRIRYRPPRLPRPRPRPNRDPRP, the “shrunken log2 fold change” value is -0.0959. For the sequence RRIRWRPPRLPRPRPRPGQTPRP, the “shrunken log2 fold change” value is -0.0122. With RRIRDRPPRLPRPRPRPDPRPRP, the “shrunken log2 fold change” value stood at 0.0663.

RRIRIRPPRLPRPRPRPICTPRP: the “shrunken log2 fold change” value is -0.458. RRIRNRPPRLPRPRPRPEDWPRP: the “shrunken log2 fold change” value is -0.0232. The result for RRIRVRPPRLPRPRPRPCGEPRP reads -0.256; that for RRIRERPPRLPRPRPRPDACPRP, -0.0198.
